Target: T1, ACE2-Fc (LG chem) (human, UniProt Q9BYF1 18-740)
T1 construct: extracellular domain; also called ACE2-ED; extracellular domain of human Angiotensin Converting Enzyme 2 protein; not shown: Fc part of ACE2-Fc
Test: BLI (Octet QKe), ACE2-Fc captured on Protein A sensor, analyte at 100 ug/mL

T1 sequence (Q9BYF1 18-740): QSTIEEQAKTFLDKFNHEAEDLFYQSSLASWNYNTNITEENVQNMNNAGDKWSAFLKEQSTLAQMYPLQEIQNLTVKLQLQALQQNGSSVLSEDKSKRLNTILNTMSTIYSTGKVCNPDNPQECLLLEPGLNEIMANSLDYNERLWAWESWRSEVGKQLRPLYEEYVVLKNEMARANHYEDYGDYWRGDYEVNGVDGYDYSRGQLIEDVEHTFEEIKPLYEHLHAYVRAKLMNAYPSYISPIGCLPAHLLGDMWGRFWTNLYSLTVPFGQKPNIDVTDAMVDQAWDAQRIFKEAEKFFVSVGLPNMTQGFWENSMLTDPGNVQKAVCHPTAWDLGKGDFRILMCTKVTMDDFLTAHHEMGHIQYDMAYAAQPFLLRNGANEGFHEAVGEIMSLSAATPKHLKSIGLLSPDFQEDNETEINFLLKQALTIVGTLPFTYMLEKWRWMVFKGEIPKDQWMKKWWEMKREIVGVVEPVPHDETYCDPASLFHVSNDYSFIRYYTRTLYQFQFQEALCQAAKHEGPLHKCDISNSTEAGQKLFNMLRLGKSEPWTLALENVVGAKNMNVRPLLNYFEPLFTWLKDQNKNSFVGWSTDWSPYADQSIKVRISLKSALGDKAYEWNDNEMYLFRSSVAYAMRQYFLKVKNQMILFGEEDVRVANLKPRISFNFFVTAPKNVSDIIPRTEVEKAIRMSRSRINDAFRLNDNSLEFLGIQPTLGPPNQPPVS

B1: Hepatitis B surface antigen (HBsAg) VLP (other)
chain: MESTTSGFLGPLLVLQAGFFLLTRILTIPQSLDSWWTSLNFLGGAPTCPGQNSQSPTSNHSPTSCPPICPGYRWMCLRRFIIFLFILLLCLIFLLVLLDYQGMLPVCPLLPGTSTTSTGPCKTCTIPAQGTSMFPSCCCTKPSDGNCTCIPIPSSWAFARFLWEWASVRFSWLSLLVPFVQWFAGLSPTVWLSVIWMMWYWGPSLYNILSPFLPLLPIFFCLWVYI
notes: also called HBsAg1
ACE2 Binding activity: 0.24

— US20250302942A1 (LG CHEM, published 2025)
